These results are taken from patent US20080027145A1, “Therapeutic Molecules and Methods for Generating and/or Selecting Same” (priority 2004, published 2008).

The target in assay [1] is mouse Mcl-1 ΔN151 ΔC23 (mouse) (UniProt P97287). Put plainly: Biacore solution competition against immobilised mouse wtBimBH3.
In assay [2] the target is mouse A1 ΔC20 (mouse) (UniProt Q07440). Described as above.
The target in another assay is Bcl-2, BCl-xL and Bcl-w. Put plainly: solution competition on Biacore.
The target in assay [3] is mouse A1 ΔC20 (mouse) (UniProt Q07440). Put plainly: solution competition on Biacore.

Chain of mouse A1 ΔC20 (mouse) (Q07440 other isoform, or with tags, fused parts or gaps mutant): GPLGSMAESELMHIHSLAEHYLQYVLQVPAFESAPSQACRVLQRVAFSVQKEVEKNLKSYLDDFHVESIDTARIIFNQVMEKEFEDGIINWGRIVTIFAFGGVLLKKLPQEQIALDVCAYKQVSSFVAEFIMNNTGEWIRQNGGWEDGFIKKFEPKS
Chain of mouse Mcl-1 ΔN151 ΔC23 (mouse) (P97287 other isoform, or with tags, fused parts or gaps mutant): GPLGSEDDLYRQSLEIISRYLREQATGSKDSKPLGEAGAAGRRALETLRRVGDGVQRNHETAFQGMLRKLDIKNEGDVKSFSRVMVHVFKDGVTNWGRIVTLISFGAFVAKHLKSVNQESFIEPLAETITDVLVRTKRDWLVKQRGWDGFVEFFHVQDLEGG

As to NLWAAQRYGRELRRMSDEFVDSFKKG [Bad (103-128) BH3 peptide, human], the IC50 in assay [1] is > 100000 nM; with mouse A1 ΔC20 (mouse) [2] it was 15000 nM; with Bcl-2, BCl-xL and Bcl-w, 5.3 to 30 nM; with mouse A1 ΔC20 (mouse) [3] it was 15000 nM.
Turning to HRAEVQIARKLQCIADQFHRLHTQ [m Bmf (128-151) BH3 peptide], the IC50 stood at 1100 nM in assay [1] and 1800 nM with mouse A1 ΔC20 (mouse) [2].
The molecule DIIRNIARHLAQVGDSMDRSIPPG [Bid (81-104) BH3 peptide, human] yielded an IC50 with mouse A1 ΔC20 (mouse) [2] of 9.3 nM.
As for PAELEVECATQLRRFGDKLNFRQKLL [Noxa (18-43) BH3 peptide, human], the IC50 came to 24 nM in assay [1] and 180 nM with mouse A1 ΔC20 (mouse) [2].
